The values below come from patent US20240092842A1.

This experiment has as its target PME crude extract of Arabidopsis thaliana stem (Arabidopsis thaliana). Kind of experiment: cell-based or functional assay.

On to “recombinant GhPMEI39 protein (pColdTF-GhPMEI39 fusion protein with 6xHis-Tag, expressed in Escherichia coli BL21 (DE3))”, for which the PME enzyme activity in the reaction solution (pectin / bromothymol blue, OD 620 nm) at PME:GhPMEI39 1:2 is 24%.
